Source: patent US6348311B1, “ATM kinase modulation for screening and therapies” (St. Jude Childre's Research Hospital, priority 1999, dated 2002)

How the values were obtained:
ATM kinase [1] = assay: ATM immunoprecipitated from SY5Y neuroblastoma cells after IGF-I, in vitro kinase assay with GST-p53; format: cell-based; details: differentiated SY5Y cells, 10nM IGF-I
Procedure: Since the growth factor and survival factor insulin-like growth factor (IGF)-I activates cellular signaling in a manner similar to insulin, the insulin observations above led us to also investigate whether IGF-I might activate ATM kinase. […] Undifferentiated and differentiated SY5Y cells were treated with IGF-I and ATM activation was assessed.
ATM was immunoprecipitated from either undifferentiated or differentiated SY5Y neuroblastoma cells after treatment with 10nM IGF-I (control cells were untreated). The immunoprecipitated ATM was then used in an in vitro kinase assay with the GST-p53 protein as the substrate. Equivalent amounts of ATM and GST-p53 were used.

ATM kinase [2] = assay: ATM immunoprecipitated from differentiated 3T3-L1 cells with or without insulin, in vitro kinase assay with GST-4E-BP1; format: cell-based; details: GST-4E-BP1 substrate
Description: ATM was immunoprecipitated from 3T3-L1 after differentiation and without (−) or with (+) exposure to insulin. The immunoprecipitated ATM was then used in an in vitro kinase assay with GST-4E-BP1 protein as the substrate. Equivalent amounts of ATM and GST-4E-BP1 were used.

4E-BP1 bound to eIF-4E = assay: Insulin induced release of 4E-BP1 from eIF-4E in fibroblasts (Western blot); format: cell-based, mice
Procedure: Fibroblasts from normal or AT mice were treated with (+) or without (−) insulin and total cellular and complexed eIF-4E and 4E-BP1 were examined by Western blot. Total cellular eIF-4E and 4E-BP1 were unchanged by insulin treatment. The amount of 4E-BP1 bound to eIF-4E was examined by immunoprecipitating eIF-4E with a methyl-G column and then blotting for both proteins.

Substance	ATM kinase activity after IGF-I treatment (ATM kinase [1])	ATM kinase activity after insulin treatment (ATM kinase [2])	release of 4E-BP1 from eIF-4E (4E-BP1 bound to eIF-4E; AT cells (A38))	release of 4E-BP1 from eIF-4E (4E-BP1 bound to eIF-4E; normal cells (A29))
IGF-I: insulin-like growth factor (IGF)-I, growth and neuronal survival factor	significantly enhanced			
Insulin: insulin		significantly enhanced	much less 4E-BP1 was released	caused a release of 4E-BP1 from eIF-4E
